The experiment concerns the target N-terminal DYKDDDK-tagged mouse Tim-3 (T-cell immunoglobulin mucin domain-3) with the VN-173 portion of the Venus fluorophore at the C terminus (Tim-3-VN) (UniProt Q8VIM0). Nature of the experiment: bimolecular fluorescence complementation (BiFC). The following applies: HeLa CD4+ cells, fixed 24 h after transfection; BiFC intensity normalized to Nef expression (HA staining); 3 independent repeats, 30 cells total; parent: est. 1.1; read off a plot.
Chain of UniProt Q8VIM0 (Q8VIM0 20-281): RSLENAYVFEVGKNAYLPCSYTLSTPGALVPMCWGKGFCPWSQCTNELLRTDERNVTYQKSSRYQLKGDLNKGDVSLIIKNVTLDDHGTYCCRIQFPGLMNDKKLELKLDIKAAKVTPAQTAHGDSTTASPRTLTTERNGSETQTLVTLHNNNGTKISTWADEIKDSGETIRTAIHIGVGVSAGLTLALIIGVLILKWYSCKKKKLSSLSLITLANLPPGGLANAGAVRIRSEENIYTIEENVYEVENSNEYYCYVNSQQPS

On to “HIV-1 NL4-3 Nef fused to a C-terminal HA tag and the VC-155 portion of the Venus fluorophore (Nef-HA-VC) L164A; L165A”, for which the response came to 0.42 BiFC/Nef IF.

The values above are taken from PMC8390549.
